Experimental findings from US20070259417A1 (published 2007) are described below.

In experiment [1] the target is trypsin (UniProt P00760). Put plainly: pfu eluted from trypsin beads.
Experiment [2] has as its target T1, human neutrophil elastase (human, UniProt P08246 30-247).
T1 construct: also called HNE; immobilized HNE
T1 sequence (looked up): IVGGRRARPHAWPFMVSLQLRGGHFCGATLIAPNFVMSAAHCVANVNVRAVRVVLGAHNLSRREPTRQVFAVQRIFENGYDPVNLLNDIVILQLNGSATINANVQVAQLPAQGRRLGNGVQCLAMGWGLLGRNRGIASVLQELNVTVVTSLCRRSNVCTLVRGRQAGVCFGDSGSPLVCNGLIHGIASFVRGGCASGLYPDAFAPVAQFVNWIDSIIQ
Nature of the experiment: pfu acid eluted from HNE beads.

Experiment [3] addresses trypsin (UniProt P00760). Put plainly: pfu acid eluted from trypsin beads.
For experiment [4], the target named is agarose-immobilized anhydro-trypsin (UniProt P00760). Nature of the experiment: pfu eluted from anhydrotrypsin beads.
Sequence of agarose-immobilized anhydro-trypsin (P00760 24-246): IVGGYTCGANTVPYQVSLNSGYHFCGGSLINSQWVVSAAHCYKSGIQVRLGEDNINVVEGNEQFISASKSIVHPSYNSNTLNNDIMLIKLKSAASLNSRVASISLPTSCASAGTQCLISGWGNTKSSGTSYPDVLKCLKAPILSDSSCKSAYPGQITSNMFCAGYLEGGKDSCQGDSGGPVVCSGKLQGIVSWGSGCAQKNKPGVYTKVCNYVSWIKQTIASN
The target is the same in experiment [5]. Nature of the experiment: phage titer after incubation with anhydrotrypsin beads.
Experiment [6] has the same target. Put plainly: pfu acid eluted from anhydrotrypsin beads, experiment 1.
Experiment [7] shares this target. Put plainly: pfu acid eluted from anhydrotrypsin beads, experiment 2.
For experiment [8], the target named is agarose-immobilized streptavidin (UniProt P22629). Put plainly: titer after 1 h with 5 ul immobilized streptavidin.
Sequence of agarose-immobilized streptavidin (P22629 37-163 limits assumed): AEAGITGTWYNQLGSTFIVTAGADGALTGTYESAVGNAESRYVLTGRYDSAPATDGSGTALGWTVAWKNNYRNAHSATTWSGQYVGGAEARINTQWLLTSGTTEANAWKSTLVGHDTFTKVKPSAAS
For experiment [9] the target is unchanged. Put plainly: titer after 2 h with 5 ul immobilized streptavidin.
For experiment [10] the target is unchanged. Nature of the experiment: titer after 4 h with 5 ul immobilized streptavidin.
The target in experiment [11] is agarose-immobilized anhydro-trypsin (UniProt P00760). Put plainly: titer after 1 h with 2 ul immobilized anhydro-trypsin.
The target is the same in experiment [12]. Nature of the experiment: titer after 1 h with 5 ul immobilized anhydro-trypsin.
Experiment [13] has the same target. Put plainly: titer after 2 h with 2 ul immobilized anhydro-trypsin.
For experiment [14] the target is unchanged. Put plainly: titer after 2 h with 5 ul immobilized anhydro-trypsin.
The target is the same in experiment [15]. Put plainly: titer after 4 h with 2 ul immobilized anhydro-trypsin.
Experiment [16] has the same target. Put plainly: titer after 4 h with 5 ul immobilized anhydro-trypsin.
Experiment [17] shares this target. Nature of the experiment: titer after 1 h with 10 ul immobilized anhydro-trypsin.
Experiment [18] has the same target. Nature of the experiment: titer after 2 h with 10 ul immobilized anhydro-trypsin.
Experiment [19] shares this target. Put plainly: titer after 4 h with 10 ul immobilized anhydro-trypsin.
For experiment [20], the target named is trypsin (UniProt P00760). Nature of the experiment: pH 2.2 eluate from immobilized active trypsin, bound in CBS pH 6.5.
Experiment [21] has as its target trypsin (UniProt P00760). Put plainly: pH 2.2 eluate from immobilized active trypsin, bound in TBS pH 7.5.
The target in experiment [22] is agarose-immobilized streptavidin (UniProt P22629). Put plainly: dot blot of phage eluted at pH 2.2 from 5 ul immobilized streptavidin.
Experiment [23] concerns the target agarose-immobilized anhydro-trypsin (UniProt P00760). Put plainly: dot blot of phage eluted at pH 2.2 from 2 ul immobilized anhydro-trypsin.
For experiment [24] the target is unchanged. Nature of the experiment: dot blot of phage eluted at pH 2.2 from 5 ul immobilized anhydro-trypsin.
The target is the same in experiment [25]. Put plainly: dot blot of phage eluted at pH 2.2 from 10 ul immobilized anhydro-trypsin.
Experiment [26] deals with M13mp18 phage. Put plainly: titer of M13MP18 after normal rabbit IgG.
Experiment [27] addresses M13mp18 phage. Put plainly: titer of M13MP18 after normal rabbit IgG and protein A beads.
Experiment [28] has as its target human Cathepsin G (human) (UniProt P08311). Put plainly: Cat-G beads, pH 2.0 eluate.
The target is the same in experiment [29]. Nature of the experiment: Cat-G beads, pH 2.5 eluate.
Experiment [30] shares this target. Put plainly: Cat-G beads, pH 3.0 eluate.
Experiment [31] has the same target. Put plainly: Cat-G beads, pH 3.5 eluate.
Experiment [32] has the same target. Nature of the experiment: Cat-G beads, pH 4.0 eluate.
For experiment [33] the target is unchanged. Nature of the experiment: Cat-G beads, pH 4.5 eluate.
Experiment [34] has the same target. Nature of the experiment: Cat-G beads, pH 5.0 eluate.
For experiment [35] the target is unchanged. Put plainly: Cat-G beads, pH 5.5 eluate.
For experiment [36] the target is unchanged. Put plainly: Cat-G beads, pH 6.0 eluate.
The target is the same in experiment [37]. Put plainly: Cat-G beads, pH 7.0 eluate.
The target is the same in experiment [38]. Put plainly: Cat-G beads, SUM of all pH elution fractions.
Experiment [39] addresses T1, human neutrophil elastase. Nature of the experiment: HNE beads, abbreviated elution, pH 2.0. The procedure: (§1) To test if the changes at positions 15, 16, 18, and 19 of the ITI-DI-III fusion protein influence binding of display phage to HNE beads, abbreviated pH elution profiles were measured. […] The beads were washed and phage were eluted as described (Example III), except that only three pH elutions were performed: pH 7.0, 3.5, and 2.0.

Experiment [40] has as its target T1, human neutrophil elastase. Nature of the experiment: HNE beads, abbreviated elution, pH 3.5. The protocol: as §1
For experiment [41], the target named is T1, human neutrophil elastase. Nature of the experiment: HNE beads, abbreviated elution, pH 7.0. The protocol:
as §1

The target in experiment [42] is T1, human neutrophil elastase. Nature of the experiment: HNE beads, abbreviated elution, SUM of pH fractions. The protocol:
as §1

In experiment [43] the target is T1, human neutrophil elastase. Put plainly: extended pH elution from HNE beads.
Protocol: To test if phage displaying the ITI-DI-III fusion protein interact strongly with the proteases human neutrophil elastase (HNE) or cathepsin-G, aliquots of display phage were incubated with agarose-immobilized HNE or cathepsin-G beads (HNE beads or Cat-G beads, respectively). […] The procession in lowering pH during the elution was: pH 7.0, 6.0, 5.5, 5.0, 4.5, 4.0, 3.5, 3.0, 2.5, and 2.0. Following elution and neutralization, the various input, wash, and pH elution fractions were titered.
For experiment [44], the target named is T1, human neutrophil elastase. Put plainly: abbreviated pH elution from HNE beads. The procedure: as §1

Ends that are not written are not given here.

Sequence of trypsin (P00760 24-246): as the sequence (P00760 24-246) above
Sequence of human Cathepsin G (human) (P08311 21-244 limits assumed): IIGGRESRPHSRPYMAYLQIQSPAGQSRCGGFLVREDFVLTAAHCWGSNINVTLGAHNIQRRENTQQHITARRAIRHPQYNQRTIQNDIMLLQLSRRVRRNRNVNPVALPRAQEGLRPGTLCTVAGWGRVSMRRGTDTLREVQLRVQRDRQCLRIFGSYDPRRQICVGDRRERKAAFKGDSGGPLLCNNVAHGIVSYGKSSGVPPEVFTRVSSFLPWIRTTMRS

As to M13mp18 phage, the binding relative to M13MP18 (with trypsin [1]; in [2]; in the experiment with trypsin [3]; in experiment [4]; in experiment [6]; in experiment [7]) was 1 fold throughout. The eluted phage, percent of input stood at 0.00023% with trypsin [1]; 0.0003% in experiment [2]; 0.0005% in the experiment with trypsin [3]; 0.1% in experiment [4]; 0.2% in [6]; 0.3% in experiment [7]. The molecule also showed a pfu after incubation as percent of input in experiment [5] of 121%.
Consider MK phage, for which the percent residual titer in experiment [8] amounted to 106%; in [9], 96%; in experiment [10] it was 98%; in [11], 97%; in experiment [12], 110%; in [13], 103%. Moreover, the percent residual titer in experiment [14] was 111%; in experiment [15], 95%; in experiment [16] it was 96%; in [17], 99%; in experiment [18] it was 93%; in experiment [19], 106%. The percent of input phage with trypsin [20] turned out to be 0.00028%; with trypsin [21], 0.00034%. The total pfu recovered in elution buffer in the experiment with trypsin [20] was found to be 1.35e+06 pfu; with trypsin [21], 1.48e+06 pfu. Also, the percent of total phage recovered in elution buffer in experiment [22], in experiment [23], in experiment [24] and in [25] was less than 1% throughout.
For “normal rabbit IgG / normal rabbit serum (antibody)”, the results for the percent of input phage (pfu) with M13mp18 phage [26] and with M13mp18 phage [27] were 104% and 88%, respectively.

B1: MA-ITI phage (other, human, UniProt P02760 227-281, looked up)
chain: KEDSCQLGYSAGPCMGMTSRYFYNGTSMACETFQYGGCMGNGNNFVTEKECLQTC
notes: residue range counts on the mature ITI light chain (UTI), not on the AMBP precursor entry; also called MA-ITI 2; MA-ITT; not shown: M13 gene III protein, mature
Turning to B1, the fraction of input in experiment [28] worked out at 7e-07; in [29], 5.9e-07; in [30], 7.8e-07; in [31], 9.6e-07; in experiment [32], 9.6e-07; in experiment [33] it was 1.5e-06. Further, the fraction of input in experiment [34] was 2.4e-06; in experiment [35] it was 2.6e-06; in [36], 5e-06; in experiment [37], 1.3e-05; in experiment [38], 3e-05; in [39] it was 1e-06. For the same molecule, the fraction of input in experiment [40] stood at 3e-06; in experiment [41] it was 1e-05; in [42], 1.4e-05. Moreover, the total pfu in sample in experiment [28] stood at 320000 pfu; in experiment [29], 270000 pfu; in experiment [30], 360000 pfu; in experiment [31], 440000 pfu; in experiment [32], 440000 pfu; in [33], 670000 pfu. For the same molecule, the total pfu in sample in [34] came out at 1.1e+06 pfu; in experiment [35] it was 1.2e+06 pfu; in experiment [36] it was 2.3e+06 pfu; in experiment [37], 6.1e+06 pfu; in experiment [38], 1.4e+07 pfu.

B2: MA-ITI-E7 phage (designed binder)
chain: KEDSCQLGYSAGPCVAMFPRYFYNGTSMACETFQYGGCMGNGNNFVTEKECLQTCR
modifications: not fully specified; cysteine pairing not given here
notes: two phage strains (1 and 2) of the same construct were tested; also called MA-ITI-E7 1; MA-ITI-E7 2; not shown: The join to the display carrier
As for B2, the “fold lower total fraction of input eluted than EpiNE-7 phage” value is roughly 40 fold in [43] and 40 fold in experiment [44]. Moreover, the “fold greater total fraction of input eluted than MA-ITI phage” value in [44] was 10 fold. In addition, in experiment [40], the fraction of input came out at 8e-05.
